Molecular target: T1, GST-SVIP (Drosophila SVIP, CG32039) (Drosophila, UniProt Q8IQC6 1-82)
T1 chain: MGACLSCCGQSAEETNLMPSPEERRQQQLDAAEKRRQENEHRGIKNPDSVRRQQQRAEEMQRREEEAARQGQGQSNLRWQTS

- Kd: 700 nM
B1: MBP-VCP^N-D1 (Drosophila VCP, N-terminal and first D1 ATPase domain) (domain or fragment)
chain: MADSKGEDLATAILKRKDRPNRLIVEEAQNDDNSVVSLSQAKMDELQLFRGDTVILKGKRRKETVCIVLSDDTCPDEKIRMNRVVRNNLCVHLSDVVSVQSCPDVKYGKRVRILPIDESTEGVTGNLFEIYLKPYFLEAYRPIHMGDNFIVRAAMRPIEFKVVLTDPEPYCIVAPETVIFCDGDPIKREEEEESLNAVGYDDIGGCRKQLAQIKEMVELPLRHPSLFKAIGVKPPRGILMYGPPGTGKTLIARAVANETGAFFFLINGPEIMSKLAGESESNLRKAFEEAEKNSPAIIFIDEIDAIAPKRDKTHGEVERRIVSQLLTLMDGMKKSSHLIVMAATNRPNSIDPALRRFGRFDREIDIGIPDATGRLEVLRIHTKNMKLHDDVDLEQIAAESHGHVGADLASLCSEAALQQIREKMDLIDLEDDKIDAEVLASLAVTMENFRYAMTKSSPSALRETVVEVPNTTWTDIGGLESVKKELQELVQYPVEHPDKFLKFGMQPSRGVLFYGPPGCGKTLLAKAIANECQANFISVKGPELLTMWFGESEANVRDIFDKARSAAPCVLFFDELDSIAKARGGNVGDAGGAADRVINQILTEMDGMGAKKNVFIIGATNRPDIIDPAILRPGRLDQLIYIPLPDDKSREAILKANLRKSPLAKEVDLTYIAKVTQGFSGADLTEICQRACKLAIRQAIEAEIRREKERAENQNSAMDMDEDDPVPEITSAHFEEAMKFARRSVSDNDIRKYEMFAQTLQQSRGFGQNFRFPGQTGNTSGSGNNLPVNSPGDNGDDDLYS

From publication PMC7820495 (2021)
